Results taken from paper PMC7459334, “Akkermansia muciniphila uses human milk oligosaccharides to thrive in the early life conditions in vitro” (Scientific Reports, 2020).

Legend:
Experiment in all cases: purified protein
purified protein [1] = substrate: O=[N+]([O-])c1ccc(O[C@@H]2O[C@H](CO)[C@H](O)[C@H](O)[C@H]2O)cc1; settings: McIlvaine buffer, pH 5.0, 37 °C
purified protein [2] = substrate: C[C@@H]1O[C@@H](Oc2ccc([N+](=O)[O-])cc2)[C@@H](O)[C@H](O)[C@@H]1O; format: biochemical, Akkermansia muciniphila; settings: McIlvaine buffer, pH 5.6, 37 °C, text b19 prints 839 ± 46.72
purified protein [3] = substrate: CC(=O)N[C@H]1[C@H](Oc2ccc([N+](=O)[O-])cc2)O[C@H](CO)[C@@H](O)[C@@H]1O; format: biochemical, Akkermansia muciniphila; settings: McIlvaine buffer
[4] = pH 5.6, 37 °C, text b19 prints 322.37 ± 43.64

B1: Amuc_0771 (Akkermansia muciniphila ATCC BAA-835) (protein)
chain: GPEAVQNVQKPALSGGPPVVFGFGGEGNQEFMLNGKPFQIRGAEMHPQRIPREYWRHRIRTAKAMGLNTIAFYVFWNDHEQPDGSFDFKTGNRDLEGFLKLCQEEGMWVLFRPGPYACGEWDLGGLPHYLLKDPKAKLRTTEDAKFMKAQTRYLEAVARVAEPFLAKNGGPILMTQLENEYGSYQRKDRKYMEWLKAFWSRKGFGPFYTSDGAGEHFLKGVVLPGVAVGLDPGLNDGHWAVANKCNPGVPVFSSETYPGWLRHWGEGNWAPTPGVVNHVRWFMDKGRSFSLFVFHGGTNFGFSAGANNGGPGKYQPDLTSYDYGSPVDEQGRMNEYYAQMREIILKKLPPEAAVPEPPADIPAMEIPEFTPAVHAGLWENLPKPFRSKFPQPPYFEQWNQNQGIAVYRTAVPSGPPETLEFTNVNDYAQVYLDGELVGTLDRRLGQKSVKLPERRKPGTLEVLVEAMGHINFHISMESDRKGIYGPVKLGTRELKNWTVRALPLKADSIVRAPKGKGPSQKREGAHFRAVVNIEEPQDTFLDMSRYVKGYVWVNGINVGRYWNVGPQLRLYVPAPFLKKGENVIDILDLHEKEPKPVRGMKERNKEPGKINTKNLDNQW
Purified protein [1]
  Km: 2,599 ± 565.27 μM
  Vmax: 60.1 µM/min
  kcat: 13.8 s⁻¹
  kcat/Km: 5670 M⁻¹ s⁻¹

B2: Amuc_1686 (Akkermansia muciniphila ATCC BAA-835) (protein)
chain: AAPMPLPESNDGARHVFSTNQENFLMDGKPVKIISGEMHYPRVPRQHWKDRFQRIKAMGMNTVCTYLFWNVHEPEPGKWDFSGNLDFVEFIKEAQKAGLWVIVRPGPYVCAEWEFGGFPGWLLKDEDLKVRSQDPRFLEPAMAYLKKVCSMLEPLQITKGGPIIMAQVENEYGSYGSDKDYVKKHLDVIRKELPGVVPFTSDGPNDWMIKNGTLPGVVPAMNFGGGAKGAFANLEKHKGKTPRINGEFWVGWFDHWGKPKNGGSTEGFNRDLKWMLENNVSPNLFMAHGGTSFGFMNGANWEGAYTPDVTNYDYGAPISENGTLTDRYRTFRQTIQDYYGDTYKLPEPPAQPEMMELPPITFTETAGMFSRLPQPVIRKEPVHMEALGQSLGFILYRTKVNGPVKGELKMNNMQDRAIVYVDGKRQGAADRRYKQDSCDIVIPSGLHTVDIFVENMGRINFGGQIQGERKGIRGPITLDGKKLENFLIYNFPCKGVELIPFSGKKPAGDQPVFHRGYFNVSNPKDTYLDMRDGWKKGVVWVNGRNLGRFWFIGSQQALYCPGEYLKPGKNEIVVLDVDGGSGTVKGVKEAIYEVNRDPAMADVFRVGKPVAPAAGQLVHKGSFAKGADQQEIKFRAPVQARYIAIVSKNAHDNGPHAAIAELNFLDASGNLLPREQWSVVYADSHETTGEAAQAGLVMDNQPTTYWHTKWQGDNPRHPHMIVLDLGKVQKLSGFRYLPRQDRENGRIKDYEVYASPKPFKPAK
Purified protein [1]
  Km: 319.40 ± 259.30 µM
  Vmax: 29.3 µM/min
  kcat: 27.2 s⁻¹
  kcat/Km: 70200 M⁻¹ s⁻¹

B3: Amuc_0010 (Akkermansia muciniphila ATCC BAA-835) (protein)
chain: QQSATKIITENGQPALALDEQFAARLRDGGMKQGSPATVPAEFSAAAPGLPLPADANHAAVRETAGERNRRMEWWRDAKFGMFIHYGLYSGLAGEWKGRPGGSEWIQKNVEVDTDTYAAEALPLFKPREGLTEEWAQLARDAGCQYVVLTSKHHEGFGLFDSALTDYDAKSAVNRDIIREYVDSCRKRGLKVGLYHSVIDWHHPSYDNTICPDLCYPAGQAAMLNRKNIPRDHAAYQKYLHAQVRELMTRYAPIDIMWWDYSQGAMEGAKGWKAPELMDMVRSINPGVIMNNRLYAYSGLNKNQAGTLDLRCGDYITPERFIPRRGYPGVDWESCMTVSDKWGYNRYDTNIKSPETIIEKLVECVTKGGNLLLNVNPMADGTIPEKVAATMRGVGRWLNINGEAVYGTRAFMQLDQPATINRQGDIFIFLIPPPDKEPAQPPSEGTMKELTAGAEHARMQPLDATGYENDGGTAVTLPAGYSKALLLGDNTALPVVNGTVLFKAHEHSKTPCSVIKLSK
Purified protein [2]
  Km: 841.23 ± 46.72 µM
  Vmax: 19.8 µM/min
  kcat: 378 s⁻¹
  kcat/Km: 451000 M⁻¹ s⁻¹

B4: Amuc_2136 (Akkermansia muciniphila ATCC BAA-835) (protein)
chain: QDAKQIADSLSIPPVKAGAKQLPMPSVSGAQIKLLGADYEQLVNSKGKIAPVISDTPVNVSFKVTKDGKEAVSKDYEIMLQAPQAAQGNPKPRIIPEILQWKGGQGEYKLGNTVTIACPDKELGKLFAADMEDVLGKKVKLVAPGAKADISLSLLKGGNLGREGYRLQIARDGVRLGAAAPTGLFWGTRTLLQMLRQTPGSVPCGTAVDFPRYQLRGFMLDVARTPYPLSYLKDVIRTMAWYKMNDLHLVINNNYIFHEHYVDNGHDPFKESYAAFRLESKMKGKDGTPLTARDLFYTKKEFADLVSYARKYGVNIVPEFDTPGHALSFTRLRPDLIYKGPMNHEKRRCEMLDAANPETIDLVSKVFDEYMLKDPKLGRPVFADCGVVHVGADEFYGDKEDYRHFANAVLTHALKRGYTPRIWGSLSAKPGKTPVVSKGVQMNLWSTGWMKAWEAVNQGYDVINTNDGALYIVPFAGYYRMDRNHKGLYNNWIPNRIGNETLPSGHPQLLGGTFAVWNDETDIMHTGYAPYDIWGIISGSMDVLSQKLWGTAKAPDTFEQHRELVSSIGNAPRTNPLHKWKDSQPLTVKPSSLPQKLDKPALGPNYRLTMELELTAAPEGKEQVLLAAPEGELLAVMKDGTVGFRRDDSLEFSFGAKLPVGKKVKVEIVGEPEKTSLLLDGEPAGTAVLKNFSDKSKDFSDKFKHRPKVHRSTFILPLKELGSSFQGKVFHMNVQPL
Purified protein [3]; pH 5.0, 37 °C
  Km: 714.55 ± 47.96 µM
  Vmax: 109 µM/min
  kcat: 1490 s⁻¹
  kcat/Km: 2.08e+06 M⁻¹ s⁻¹

B5: Amuc_0369 (Akkermansia muciniphila ATCC BAA-835) (protein)
chain: QEQIIPKPAEITLFTGSPARLTPDSLIITETQDKAFLDQAGQLQQMLSAGTGLPLPLKPAGQASKKAACIVIKKDPALAARGEEAYSIQSSPSGIILSAADARGIFYAGQSLVQMMPSVFHDRTGDKSAVRWNISETPFRITDYPRFSWRALMIDEARHFFGEKTIKQIIDQMALLKMNILHWHLTDDTGWRIEIKKYPRLTSIGSKRRESEIGTWNSGKSDGTPHEGFYTQEQIRDIVQYAARRNITIVPEIEMPGHASAAAVAYPFLSLKTPGEVPTTFIVNTAFDPTSEKTYAFLSDVLDEVTAIFPGRIIHIGGDEVRYDKQWKGVPEIEEFMKKNGMKSYADVQMHFTNRMSGIIAQKGRRMMGWNEIYGHDVNGDGGGKAGAKLDTNAVIQFWKGNTSLAKNAIRDGHDVINSLHTSTYLDYSYGSIPLQKAYGFEPVFPGLEKQYHSRVKGLGAQVWTEWISTPERLHYQAFPRACAFAEVGWTPAGKKDFPDFKKRLKAYSERMDLMGIKFARNVISQIDKSDFFNTPRIGTWTPATLTREEHSFDVTKLVKASGKHTVTLLYDKGAHAIEIESVALYENSREVSRDAHAGRSGAHKENIQYILNAPAPRQGATYTVKANFKGAGGRDSHGTVYFETP
Purified protein [3]; [4]
  Km: 323.38 ± 43.64 µM
  Vmax: 55.6 µM/min
  kcat: 670 s⁻¹
  kcat/Km: 2.07e+06 M⁻¹ s⁻¹
